A protein production outcome set (Wang et al. 2014)

assay: label from the status in PepcDB records
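Note: failed if final PepcDB status was selected cloned or expressed and not failed if soluble or beyond.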

Q: Which protein production does the source give for “MCAEIPAMGPDLAIARAAAARWRKRAAEREQTRKTLDHQPAGHFTPVDSVDRLAKRAGRLQQWAAAIRALPPAAILGLPAAPPPTGGAADTREIDMVAPALSLRALAAERIIGETSDLLSVEFLEIGVAAARAVGLITTRGAPNGTGFLVAPDVVLTNNHVLPDVRTARASALEMDFETNRHGPRKEVQSFELDPDGFFLTDAPLDFTLVRVRPTSDGGQALSDYGFLPLIAAEGKIAVGEPLNIIQHPGGRVKQAALRNNRLLDLPPSNEADALNPDAVFHYETDTEKGSSGSPVFNDQWEVVALHHTGVPKTDASGAMIDADGRVVPDSQPERIVWIGNEGIRISRLYQYVFTFTFADPAMASVRDALIALWTDAGRPGWARTAAEAETIVHPPAALADPPPAAPAIIPLAEERGAAIAPDPADPAYARRPGFRSDFLGLPTPLPRLVDDSRGPLATFGEGVSELRYHHYSVLMNARRRLAYVAAVNIDHRAPFDVQRGTDRWFFDPRLPKRLQAGGDYYAANPLDRGHLVRRDDAAWGYTQAEAQLANDDTFHWTNCSPQHEVFNQSAKASGKGLLLWGNLENAVVDLAKATNGRLCVYNGPLFTEDDRPYRQDFFVPGAFWKLIALIDGQSRPRALAFRLSQAAQIADLPAEAFAPAELAAFTPVQIPVATLGALTGLDFGALAQWDPLAAGSDGVSKETLSPPRSIILTREADIVF” here?
A: Its protein production is “failed”.

Q: For “MCAMSQEHQNPTPLPQVSDMAPVNPPKNQRYPRAVDLSLIECHCCGLLNQVDSDHSEQAHSRHCIRCHSPLHVRKPRSLDRTLALVIAASILYIPANVLPMTMTDSLLGRQQDTIMSGVIYFWQNSDYLVAVVIFMASIFIPMLKLIILCFLLIAVRMQESSKWHFLPEHCALLYRIVEFVGRWSMIDVFVVALLTALIQIQSLATILAGPGAVAFGAVVVLTMFASLSFDPRIIWDNYYKAQAKQHDPLQTIDNTSSISVEQ”, which protein production is on record?
A: Its protein production is “failed”.

Q: Which protein production does the source give for “MCENEEYRERFPDKHFDLETVLQAKVRPICVVPERTFIGFFHREKSKEEEEKEDVSLDFLKGVMSFDSIWEEIMKQEPEESASEHVIYIVSWNDHYFVLLVNHDAYYIIDTLGERVYEGCNQAYVLKFDQDAEIKRLPSVIKDNKADMGSQKQGGKNKYEQPERSKESEEQGEEVVVCRGKESCREYIKSFLAAIPIQQVKADMKEGLVSSFHHRLQIELYYTKHLHHRQPNMFESSTTKVTVSEATVSMTVAWLLASQFSNSGGFGCEMAELLGIKV” here?
A: The protein production was “failed”.

Q: With “MCGAWFFGARVFEFFTSLFESMKVLKLLPNFLTILRIVLSLFLLFLLLNTRTYFSFLTPFQTNMISSLVFLFAALTDLLDGYIARSYKAKSRFGEIFDPLADKILILSAFLGLVYLDRVNAWIPFVILGREFFISGLRVLAANEKKDIPVNALGKYKTVSQVVAIGALLADVTYSYALVAIAVFLTLYSGIDYTIKYYKS” as the sequence, how does the protein production read?
A: The protein production was “failed”.

Q: Which protein production does the source give for “MCIAVIGGMDRLERHYRQEAARTGFELRVFSQSENNIATKLKRFDALVIFTNKVSHRVRNEAMSAAKLNGIPVFQYHSCGVCTLRDCLNCLVLPAGGGTKLEHHHHHH” here?
A: Its protein production is “failed”.

Q: With “MCKLIKCELLKLKSMLGAILAFFFPLLLVSIGLLNIYTGSVKISGTSEMWNAIYVQSSSLYGGILFPVFLSALVSLQWRVEFKNNNINNILITDKSHKDIYLSKIFSTFVIAFINIILYIIIIFISVKVLLPKETVKAFIFYGPIIGLLFSLPLICIQHFLSMNFKNFALPLVIGIVLSLPNFVASCYSFSTFIPYSYICKGMFFNVKNSLNVECPIYIFILTALIFVASVSLGTKVFKNKEFR” as the sequence, how does the protein production read?
A: The protein production was “failed”.

Q: Which protein production does the source give for “MCLKNNAKDEIMDSTKAWYQSRTIWGALIAVFAPLFSIAGFDLPAGLHGELAEGLVTVAGGIGGLIALYGRLSATRSIR” here?
A: The protein production was “failed”.

Q: Which protein production does the source give for “MCNGKVVNKGDDCQSLTFRRRSGWAMIDRSAVMEKTMDSRIQDVLDIYHAMIETEHNSPRELPPGGRDGGQDQRLRAVGQATGQFINILAKSLKSPTILELGTSFGYSGIWLAEAARASGGRLITMEMHDYKSAYARDMAVKAGLAEHVEFKVGDAVQMIGALSSGIDFVLVDLWKDLYVPCLEAFYPKLNPGAIIVADNMLRPGGDDLKRYSDAVRAKPWISSVLLPVGSGLEVSRFD” here?
A: The protein production was “failed”.

Q: With “MCQESVIVMQATQPLQTVSQAVPKEFLQADGGFNPNVAMFGIAILLMLANVFGYWQWGLPHWLCFSCSVLALHLSGTVIHDASHNAAHRNTIINAVLGHGSALMLGFAFPVFTRVHLQHHANVNDPENDPDHFVSTGGPLFLIAARFFYHEIFFFKRRLWRKYELLEWFLSRLVLFTIVFLGIHYGFIGFVMNYWFVPALIVGIALGLFFDYLPHRPFQERNRWKNARVYPSPILNWLIFGQNYHLIHHLWPSIPWYQYQNTYHITKPILDEKGCDQSLGLLEGKNFWSFLYDVFLGIRFHGHNNSQSSDKP” as the sequence, how does the protein production read?
A: Its protein production is “failed”.

Q: Which protein production does the source give for “MCRALLSITMQIPLVKWTEGLNIKTIVSISYVCYAVAAIGFAFSSSIFWLLSTAVLFTAAESMLLNHMQTFVSRLAPNHIRGGYFAFFGPHWDISRTIGPFLGGMIFIKFGGAALFLAIAGIMALGGIAQYRAVSRLKKLVLYSTWY” here?
A: Its protein production is “failed”.

Q: For “MCRTRPSCGRMEEKRPVDAAGAVALIGIAALLAFNQVVIKVTGGGFGPLFQAGLRSALGLVFVLIWMRLLRKPIVFPRAALMGALITGLLFTVEFMALFAALDLTSVSRVSILFYSMPVWLALGGHFLLPGERLSGMRVLGLMLAMGGVVLALLERDAAHVSLLGDALAVFAAMCWAAIALGVRLTPLGRVPAEMQLMSQLVISAPLLLVLAPLTGETLRTPGLLHWAGLLFQAVGVVGLGFLIWFRLLAVYRANGVASFSFLSPVLAVILGWLLLGEQVGPLVWLALGLVAAGIVLINRR”, which protein production is on record?
A: The protein production was “failed”.

Q: For “MCRYCLIVAARVGAVDDARFDMTAPDLIPIETLFGMPEFSRAQISPDGRLVAYLAPWRGRLNIWVRPVGQGTARRLTGDDTRNIDGFSWTRDTRYLLFIQDTQGDENWHLHRVEVDGAEAVGGKARTVDLTPYSGVRVMGLELSAAFPSKAFVQMNLRTPDLIDLYEVDIESAETRVAALNPGRFVRWIVTPNGPMHAFIINDVGDHELARYENGVFTTLAKLSGRDQPIGPMPLMVAADGESVLVGCNAGSDHTYLAAIDLATGKCRVIDSQPDCSLDTPRPEADPRFPSSLITNPVTGELLAVRYLGKRQQIRPLNLRFAAVLNSLQRLSDGEIGYISCDAGGRQWVAEFWDDRHPGTTWFYEHESGEAHVLGERFSALSAERLVSVRPIDVISRDGLTLPCHVTLPVGFDAKDEPRALPTVLLVHGGPWYRDACVYDPEVQFLANRGYAVLQVNFRGSTGYGKAFMQAAIGEFSGRMHDDLIDGLDWLIGQGIADPARVAIYGCSYGGYAALVGASFTPERFTATISYSGISDLRMLVNGVVPFVQPTLINTYLSYMGDPDIETQNRDMLARSPVSRLDCISKPLLVVHGANDVRVAKAQADMVVERVRANGVEVDYLLNEREGHWFINEDSNIELYRKIERFLARHLRGE”, which protein production is on record?
A: Its protein production is “failed”.

Q: Which protein production does the source give for “MCSALVVAAPHSGSGKTTVTAAIARYHRVQGRKVTVFKVGPDFIDPMILRQASGELVYQLDLWLVGEQGCRALLHRAAMDSDLILIEGVMGLFDGTPSSADLAKYFNIPVLGVIDAKAMAQTFAAVTFGLAKFCEDLPFSGVIANRVNTERHAELLSVSLPKAFRFYGRIPKDDTITLPERHLGLVQAQELSDIDVQLDKAASHIANTGLTELPSQVEFFAQEDDNQENIIEGALAGTRIIIIRDSAFSFIYAANIAFLTQTGAELIYCSAMADVHLPDGDILYIPGGYPELYAEQLMNNVTFLSDIRAFSASNKPIVAECGGMLYLLEQLTDMEGQQFSMLGLMPGKATMQKKLAAIGSQWVPLPSFADAAEDSADNIMRGHSFHYSCAEIELEPSSQTTHHPSERAGEYVYQHNNILASYMHWYFPSNPSLTLRIFDKARYLLEHHHHHH” here?
A: The protein production was “not failed”.

Q: With “MCSLEKRDRLFILKLTGDGEHRLNPTLLDSLRSTINQIRSDPSFSQSVLITTSDGKFFSNGYDLALAESNPSLSVVMDAKLRSLVADLISLPMPTIAAVTGHASAAGCILAMSHDYVLMRRDRGFLYMSELDIELIVPAWFMAVIRGKIGSPAARRDVMLTAAKVTADVGVKMGIVDSAYGSAAETVEAAIKLGEEIVQRGGDGHVYGKMRESLLREVLIHTIGEYESGSSVVRSTGSKL” as the sequence, how does the protein production read?
A: Its protein production is “failed”.

Q: With “MCVRHDAGHGCLRAREGRRRPSMAPPCRKKINKPVLVRVDEFCSAAVQAGNPIVPSTLETTHWATRRRPKEAGMASKMFKTVGRVAAGVAALSIAAAATTASADSRHHRHKRDKGGDVAAAAITAGVIGLVIGAAIADDGHRDDRYYDRRYAPPPPPPPTRYGHGYGYGYDYDYAPRPYYGDRECWTTREYNRRSGSYYERTVCR” as the sequence, how does the protein production read?
A: The protein production was “failed”.

Q: Which protein production does the source give for “MDAEAAKMIGAGLAAIGMIGSGIGVGNIWANLIATVGRNPAAKSTVELYGWIGFAVTEAIALFALVVALILLFAA” here?
A: Its protein production is “failed”.

Q: With “MDAKHIEKVFVKKVPAKSNKAQVKYPFDENSVNVLIIGLDKASNRSTYDLHRTDTILFLNINFKDKKVKGISIPRDTLTEIYKVGKWDKINSAFGYGGGEKEEGFFYTMETVSKLLGGMPIEYYVGFDLDAVRKVVNILGGVYVNVEVPVKVKTKWVNIDLKPGYQKLNGIETLYYALWRKTPGGDIDRIKRDKELILSVFEQLKESNKIITLPEIYWKIRRHFYTNLSLQQITSLAYFAQNMKKEDIVFESIPGDYFNYMGVSYWKPDYEGIKKLVKDLFGYDIEIDLKMPEKYKYARRIIVKAKKENNISYLEHHHHHH” as the sequence, how does the protein production read?
A: Its protein production is “not failed”.

Q: Which protein production does the source give for “MDAKQLSKRLATVGAFVQPGARVADIGSDHAYLPANLALNHQISYGVAGEVVRGPFENARHEIQKLGLTDRLVARLADGLAAIEPADRIDTVTIAGMGGPLIRHILEQGPTQLAGVQRLVLEPNVGEATVREWLAANQFQIVAERILAEDGHTYEILCADRVDHQVTYTTAEQMFGPFLLAEKSPVFIAKWQRELQRVNAAVAQMQRAKVIPEEQLALAHAKIKLIEGVLTDASK” here?
A: Its protein production is “failed”.

Q: Which protein production does the source give for “MDAKVAFSPHSDANGRLDEIGADIDTAQSSVLFSLAFLGQMTRGAIGPALGRALERPEVHVMGIADAEVRAGNLGLNVLTPDNRRRVVRAAALTGNVPPPFLTEPSGLAGVDGNQRGTRMHHKFVVLDFDKPTARVYLGSYNFSNPADDENGENLVVVRDRTVATSYMIEALRMYDHLEHHHHHH” here?
A: Its protein production is “failed”.

Q: With “MDALTVGELRRRVHALVLGKRQRVYSGAMFLVEVVHHPELSAMLGLEDNKLLLAMIAQRLQMQSDYFQVARHSSDSFMVWAPDLDPRSARDVAPEVLDALSQPYELRGQPLIVGFRLSGALYAQHGACFDELERSLHIAMLHLDESAGAAWNMFEPSMLEHQRHYQGLEHHHHHH” as the sequence, how does the protein production read?
A: The protein production was “not failed”.

Q: With “MDAVKKAILGEVLEEEEAYEVMRALMAGEVSPVRAAGLLVALSLRGERPHEIAAMARAMREAARPLRVHRRPLLDIVGTGGDGKGLMXLSTLAALVAAAGGVAVAKHGXRAASSRAGSADLLEALGVDLEAPPERVGEAIEELGFGFLFARVFHPAMRHVAPVRAELGVRTVFXLLGPLTXPAGADAYVLGVFSPEWLAPMAEALERLGARGLVVHGEGADELVLGEXRVVEVGKGAYALTPEEVGLKRAPLEALKGGGPEEXAALARRLLKGEEKGPLADAVALAAGAGFYAAGKTPSLKEGVALAREVLASGEAYLLLERYVAFLRA” as the sequence, how does the protein production read?
A: The protein production was “not failed”.

Q: With “MDCKKVIADYWNLRSSTYTNGENGFDAEERIIWRRMLENFLPPGQRLKVLDVGTGPGFLALLFAEMGHEVTAVDISMGMLEKARNNAKTLGVKVDLFHGDAEKLPFEDCYFDLVVNKYLLWTLPQPEIAVQEWMRVLKPGGRVFAIDGNWFNPRPDKKVKRWITGVVNPDMNKNPSRSFFNEFYGPIRKALPLYEDISPENVSVVFSKMGFENTAVNPLQEAQKFKKSKLPFIQRFLRDTPIFLITGQKATE” as the sequence, how does the protein production read?
A: Its protein production is “failed”.

Q: For “MDDKTAGGKIVMNKEQLLLFMENRRKQEDHRLALAKEATRSEMVDRKASGKIIMNHDQQLMFNEDHRLAVKKASRSEMVDLEGMGSEASVIMSNVPQPTSFSEDHKLAIKNIISKIVKEIRDRDHPA”, which protein production is on record?
A: The protein production was “failed”.
